Assay results published in US20250002566A1 (FUNDA O OSWALDO CRUZ, published 2025).

What was measured:
[1] = molecular target: DENV1 envelope (E) protein on virus particles (strain PE/97-42735) (Dengue virus 1); assay: cell-based or functional assay
[2] = molecular target: DENV2 envelope (E) protein on virus particles (strain PE/95-3808) (Dengue virus 2); assay: cell-based or functional assay
[3] = molecular target: T1, ZIKV Envelope (E) protein, recombinant, in its dimeric form (Native Antigen, UK) (Zika virus); assay: thermal unfolding of the ZVPA3-E(Dimer) complex at the estimated stoichiometry, compared with ZVPA3 alone
T1 chain: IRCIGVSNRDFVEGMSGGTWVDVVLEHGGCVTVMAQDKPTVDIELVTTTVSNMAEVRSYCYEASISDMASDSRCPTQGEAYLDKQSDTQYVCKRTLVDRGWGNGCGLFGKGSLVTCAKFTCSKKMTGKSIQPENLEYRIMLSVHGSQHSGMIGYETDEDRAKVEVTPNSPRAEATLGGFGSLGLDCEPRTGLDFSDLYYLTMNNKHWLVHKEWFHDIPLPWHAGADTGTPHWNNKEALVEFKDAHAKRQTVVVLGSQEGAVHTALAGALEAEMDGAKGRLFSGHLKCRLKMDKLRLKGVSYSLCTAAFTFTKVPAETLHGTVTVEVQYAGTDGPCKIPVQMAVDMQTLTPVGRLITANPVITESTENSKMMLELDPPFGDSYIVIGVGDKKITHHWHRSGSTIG

[4] = molecular target: T1, ZIKV Envelope (E) protein, recombinant, …; assay: estimated from MST concentrations at maximum binding (ca. 3x10^13 E dimer molecules with ca. 8x10^12 ZVPA3 molecules)
[5] = molecular target: T1, ZIKV Envelope (E) protein, recombinant, …; assay: microscale thermophoresis (MST), 150 nM dye-labelled ZIKV E, ZVPA3 titrated in 16 serial 1:2 dilutions, three independent experiments

B1: ZVPA3 (designed binder)
chain: MGSSHHHHHHSSGLVPRGSHMAKGDPHVLLTTSAGNIELELDSQKAPVSVQNFLDYVNNGFYNNTTFHSVIPGYMIQGGGYTEDMQQKQPNPPIKNEADNGLRNTRGTIAMMRTEDKDSATSQFFINVADNAYADHGQTRYGFAVFGKVVKGMDVADKISQVPTHDVGPYQSVPSKPVVILSATVLPGSGC
notes: Produced as a monomer, ca. 20 kDa; In the MST with virus particles ZVPA3 carried the RED NT-647-NHS dye; The crystal structure of ZVPA3 alone is PDB 7ZFM; also called ZVAP3; designed protein
In the case of B1, the “EC50, plaque reduction neutralization test (PRNT) of DENV1 on Vero cells” value [1] is reported as 870 nM, the “EC50, plaque reduction neutralization test (PRNT) of DENV2 on Vero cells” value [2] is reported as 980 nM and the “stability gain of the complex against ZVPA3 alone (thermal unfolding)” value [3] is reported as ~5 ° C. The “stoichiometry ratio ZVPA3:E(Dimer)” value [4] was 3.75 E(Dimer) per ZVPA3 and the Kd [5] was 86.6 nM.
